Test results as given in publication PMC7721647, “The Human RNA Helicase DDX21 Presents a Dimerization Interface Necessary for Helicase Activity” (iScience, 2020).

Tests used:
DDX21ΔN monomer = biological target: T1, DDX21ΔN monomer (human, UniProt Q9NR30 186-783, L611R;A612R;A613R;A614R;L615R;A616R); test: fluorescence polarization; 50 mM KCl; FP: 50 mM Tris pH 7.5, 50 mM KCl, 5 mM MgCl2, no ATP; Hill-slope fit; temperature not given in the material; conditions: protein: recombinant; label: 5'-FAM; G4
T1 sequence: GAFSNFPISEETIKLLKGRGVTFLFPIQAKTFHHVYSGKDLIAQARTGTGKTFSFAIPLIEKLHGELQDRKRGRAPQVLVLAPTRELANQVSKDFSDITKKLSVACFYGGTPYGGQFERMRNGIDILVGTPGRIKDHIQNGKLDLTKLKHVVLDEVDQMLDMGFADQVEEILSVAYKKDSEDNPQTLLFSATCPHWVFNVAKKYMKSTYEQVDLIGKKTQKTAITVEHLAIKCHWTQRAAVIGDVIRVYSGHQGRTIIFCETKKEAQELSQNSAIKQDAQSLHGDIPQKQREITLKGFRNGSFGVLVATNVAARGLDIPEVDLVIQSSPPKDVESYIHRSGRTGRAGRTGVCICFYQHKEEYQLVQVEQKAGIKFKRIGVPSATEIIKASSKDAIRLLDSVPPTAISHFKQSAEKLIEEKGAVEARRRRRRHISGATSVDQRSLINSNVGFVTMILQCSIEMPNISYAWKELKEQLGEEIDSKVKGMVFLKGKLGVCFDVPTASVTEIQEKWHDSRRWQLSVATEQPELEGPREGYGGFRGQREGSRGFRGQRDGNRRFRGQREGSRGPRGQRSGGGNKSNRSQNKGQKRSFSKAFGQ

DDX21ΔNC [1] = biological target: T2, DDX21ΔNC (human, UniProt Q9NR30 186-710); test: fluorescence polarization; 50 mM KCl (Table S2 prints 36.7); FP: 50 mM Tris pH 7.5, 50 mM KCl, 5 mM MgCl2, no ATP; Hill-slope fit; temperature not given in the material; conditions: protein: recombinant; chain copies: 2; label: 5'-FAM; G4
T2 sequence: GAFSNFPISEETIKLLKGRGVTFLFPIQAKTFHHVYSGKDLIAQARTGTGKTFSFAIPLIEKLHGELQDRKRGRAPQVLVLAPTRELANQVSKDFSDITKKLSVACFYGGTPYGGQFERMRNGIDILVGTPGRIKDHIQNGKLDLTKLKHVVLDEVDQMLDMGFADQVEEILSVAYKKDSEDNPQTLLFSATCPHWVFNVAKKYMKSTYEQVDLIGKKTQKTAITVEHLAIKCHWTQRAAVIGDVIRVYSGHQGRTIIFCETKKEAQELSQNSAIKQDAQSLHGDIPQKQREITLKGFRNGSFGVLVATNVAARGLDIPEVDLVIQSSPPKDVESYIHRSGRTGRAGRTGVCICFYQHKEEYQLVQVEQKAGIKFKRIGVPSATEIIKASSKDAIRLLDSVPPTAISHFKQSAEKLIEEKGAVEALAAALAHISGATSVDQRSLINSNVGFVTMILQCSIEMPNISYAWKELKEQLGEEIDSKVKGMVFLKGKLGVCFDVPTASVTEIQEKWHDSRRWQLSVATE

DDX21ΔNC [2] = biological target: T2, DDX21ΔNC; test: fluorescence polarization; FP: 50 mM Tris pH 7.5, 50 mM KCl, 5 mM MgCl2, no ATP; Hill-slope fit; temperature not given in the material; conditions: protein: recombinant, chain copies: 2
DDX21Core-DD = biological target: T3, DDX21Core-DD (human, UniProt Q9NR30 186-620); test: as above; conditions: protein: recombinant, tags: C-terminal His6, uncleavable, chain copies: 2
T3 sequence: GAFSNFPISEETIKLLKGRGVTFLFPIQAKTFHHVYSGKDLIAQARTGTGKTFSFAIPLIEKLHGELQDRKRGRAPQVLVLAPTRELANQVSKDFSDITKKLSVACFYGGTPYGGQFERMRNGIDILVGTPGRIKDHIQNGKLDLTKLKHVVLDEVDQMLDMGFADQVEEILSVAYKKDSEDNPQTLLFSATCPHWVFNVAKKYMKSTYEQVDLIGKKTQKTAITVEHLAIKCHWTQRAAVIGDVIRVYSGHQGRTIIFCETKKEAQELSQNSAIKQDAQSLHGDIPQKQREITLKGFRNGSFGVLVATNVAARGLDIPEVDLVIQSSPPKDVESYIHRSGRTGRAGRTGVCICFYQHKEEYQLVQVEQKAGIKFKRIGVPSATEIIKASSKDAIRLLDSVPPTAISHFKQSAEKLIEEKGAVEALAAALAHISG

DDX21Fl = biological target: T4, DDX21Fl (human, UniProt Q9NR30 1-783); test: fluorescence polarization; no ATP; FP: 50 mM Tris pH 7.5, 50 mM KCl, 5 mM MgCl2, no ATP; Hill-slope fit; temperature not given in the material; conditions: protein: recombinant, tags: N-terminal Trx-His6, cut with thrombin, chain copies: 2
T4 sequence: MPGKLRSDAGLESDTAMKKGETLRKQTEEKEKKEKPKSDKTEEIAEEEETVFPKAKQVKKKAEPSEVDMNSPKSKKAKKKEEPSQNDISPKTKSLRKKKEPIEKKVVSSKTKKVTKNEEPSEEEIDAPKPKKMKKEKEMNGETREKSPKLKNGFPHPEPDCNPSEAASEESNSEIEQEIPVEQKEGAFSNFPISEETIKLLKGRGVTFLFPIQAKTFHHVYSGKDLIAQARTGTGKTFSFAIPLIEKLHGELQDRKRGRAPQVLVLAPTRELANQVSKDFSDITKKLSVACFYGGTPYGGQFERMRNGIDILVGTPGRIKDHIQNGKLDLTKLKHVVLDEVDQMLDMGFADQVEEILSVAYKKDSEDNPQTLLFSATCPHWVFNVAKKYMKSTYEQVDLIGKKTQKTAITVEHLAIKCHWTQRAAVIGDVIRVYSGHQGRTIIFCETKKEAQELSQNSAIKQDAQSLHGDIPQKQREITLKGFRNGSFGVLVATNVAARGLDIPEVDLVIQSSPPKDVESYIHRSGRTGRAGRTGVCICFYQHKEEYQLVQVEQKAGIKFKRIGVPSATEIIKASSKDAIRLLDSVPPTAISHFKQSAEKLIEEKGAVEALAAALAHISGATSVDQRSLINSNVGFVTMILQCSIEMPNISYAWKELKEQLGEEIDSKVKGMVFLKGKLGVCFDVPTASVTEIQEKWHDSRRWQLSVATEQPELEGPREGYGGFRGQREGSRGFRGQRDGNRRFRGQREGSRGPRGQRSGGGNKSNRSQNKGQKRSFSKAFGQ

[3] = label: 5'-FAM on 15-mer, 3' overhang 15 nt

## GUUGGGGCGGGCGUUGGGUUUGGGGGGACG (structured_RNA) [Q2 RNA G-quadruplex]
DDX21ΔN monomer
  Kd: 2.9 ± 0.3 nM
DDX21ΔNC [1]
  Kd: 36.5 ± 2.7 nM

## GUUUCGGAUCGACGC (ssRNA) [15-mer ssRNA]
DDX21ΔNC [2]; label: 5'-FAM, single strand
  Kd: 688 ± 52.7 nM
DDX21Core-DD; label: 5'-FAM, single strand
  Kd: 330 ± 19.1 nM
DDX21Fl; label: 5'-FAM, single strand
  Kd: 30.7 ± 2.8 nM

B1: dsRNA 15/30mer 3' overhang (dsRNA)
RNA 1: GUUUCGGAUCGACGC
RNA 2: GCGUCGAUCCGAAACUAUACUUAAUUUUAA
DDX21ΔNC [2]; [3]
  Kd: 217 ± 10.4 nM
DDX21Core-DD; [3]
  Kd: 143 ± 6.1 nM
DDX21Fl; [3]
  Kd: 10.2 ± 0.4 nM
